US20150344570A1 (published 2015)

How the values were obtained:
[1] = target: T1, FcγRIIa H (FcγRIIa type H, His at position 131), extracellular domain with C-terminal His tag (human, UniProt P12318 34-217); assay: SPR (Biacore); He/Con_2aH divided by He/Con_2b (FcγRIIa H against FcγRIIb)
T1 construct: extracellular domain; expressed in FreeStyle293 cells; also called FcgRIIa H; 2aH; not shown: His tag attached to the C terminus
T1 sequence (looked up): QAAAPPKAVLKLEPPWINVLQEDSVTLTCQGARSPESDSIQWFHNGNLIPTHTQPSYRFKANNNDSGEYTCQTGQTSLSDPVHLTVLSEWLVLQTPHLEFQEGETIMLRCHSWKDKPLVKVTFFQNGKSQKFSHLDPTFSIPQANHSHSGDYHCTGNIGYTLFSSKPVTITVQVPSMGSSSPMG

[2] = target: T1, FcγRIIa H (FcγRIIa type H, His at …); assay: SPR (Biacore), antibody captured on antigen peptide chip, FcγR as analyte; relative to GpH7-A5/GpH7-B3/GpL16-k0 = 100
[3] = target: T2, FcγRIIb, extracellular domain with C-terminal His tag (human, UniProt P31994 43-217); assay: as above
T2 construct: extracellular domain; expressed in FreeStyle293 cells; also called FcgRIIb; 2b; not shown: His tag attached to the C terminus
T2 sequence (looked up): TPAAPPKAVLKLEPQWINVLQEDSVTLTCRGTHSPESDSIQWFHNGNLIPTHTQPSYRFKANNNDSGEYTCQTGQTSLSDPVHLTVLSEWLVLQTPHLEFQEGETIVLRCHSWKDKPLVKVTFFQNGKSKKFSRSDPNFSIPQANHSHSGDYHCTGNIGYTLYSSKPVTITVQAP

[4] = target: T3, FcγRIa extracellular domain with C-terminal His tag (human, UniProt P12314 16-292); assay: SPR (Biacore), antibody captured, FcγR as analyte; binding relative to GpH7-A5/GpH7-B3/GpL16-k0 = 100
T3 construct: extracellular domain; Soluble receptor used as analyte in Biacore; also called FcgRI
T3 sequence (P12314 16-292): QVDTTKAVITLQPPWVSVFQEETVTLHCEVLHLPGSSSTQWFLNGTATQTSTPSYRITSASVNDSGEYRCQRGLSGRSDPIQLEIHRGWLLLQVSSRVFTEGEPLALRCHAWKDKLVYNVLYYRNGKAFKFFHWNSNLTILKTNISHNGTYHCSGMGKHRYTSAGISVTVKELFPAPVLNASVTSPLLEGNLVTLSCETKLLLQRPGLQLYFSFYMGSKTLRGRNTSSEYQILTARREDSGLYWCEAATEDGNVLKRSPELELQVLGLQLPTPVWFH

[5] = target: T4, FcγRIIb extracellular domain with C-terminal His tag (human, UniProt P31994 43-217); assay: as above
T4 construct: extracellular domain; Soluble receptor used as analyte in Biacore; also called FcgRIIb
T4 sequence (looked up): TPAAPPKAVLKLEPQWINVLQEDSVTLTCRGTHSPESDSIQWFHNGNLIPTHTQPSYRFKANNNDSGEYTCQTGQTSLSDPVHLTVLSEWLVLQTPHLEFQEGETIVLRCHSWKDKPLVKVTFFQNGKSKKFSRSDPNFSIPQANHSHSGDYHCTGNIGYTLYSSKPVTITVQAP

Binder	He_2aH/2b (IIaH/IIb) [1]	He/Con_2aH (relative binding activity) [2]	He/Con_2b (relative binding activity) [3]	He/Con_1a [4]	He/Con_2b [5]
GpH7-A5/GpH7-B3 variant P238_08L/GpL16-k0 (antibody, human IgG1, kappa, Heterodimerized antibody (He Ab): mutation in the GpH7-B3 chain only; also called He Ab) heavy 1: not shown heavy 2: not shown light: DIVMTQSPLSLPVTPGEPASISCQASESLVHSNRNTYLHWYLQKPGQSPQLLIYKVSNRFSGVPDRFSGSGSGTDFTLKISRVEAEDVGVYYCSQNTHVPPTFGQGTKVEIERTVAAPSVFIFPPSDEQLKSGTASVVCLLNNFYPREAKVQWKVDNALQSGNSQESVTEQDSKDSTYSLSSTLTLSKADYEKHKVYACEVTHQGLSSPVTKSFNRGEC	0.41 ratio	84.6 % of HeCon Ab (= 100)	204 % of HeCon Ab (= 100)	–	–
GpH7-A5/GpH7-B3 variant P238_09D/GpL16-k0 (antibody, human IgG1, kappa, Heterodimerized antibody (He Ab): mutation in the GpH7-B3 chain only; also called He Ab) heavy 1: not shown heavy 2: not shown light: DIVMTQSPLSLPVTPGEPASISCQASESLVHSNRNTYLHWYLQKPGQSPQLLIYKVSNRFSGVPDRFSGSGSGTDFTLKISRVEAEDVGVYYCSQNTHVPPTFGQGTKVEIERTVAAPSVFIFPPSDEQLKSGTASVVCLLNNFYPREAKVQWKVDNALQSGNSQESVTEQDSKDSTYSLSSTLTLSKADYEKHKVYACEVTHQGLSSPVTKSFNRGEC	0.4 ratio	87.5 % of HeCon Ab (= 100)	221 % of HeCon Ab (= 100)	–	–
GpH7-A5/GpH7-B3 variant I332_15Y/GpL16-k0 (antibody, human IgG1, kappa, Heterodimerized IgG1, mutation in the GpH7-B3 chain only; also called He Ab) heavy 1: not shown heavy 2: not shown light: DIVMTQSPLSLPVTPGEPASISCQASESLVHSNRNTYLHWYLQKPGQSPQLLIYKVSNRFSGVPDRFSGSGSGTDFTLKISRVEAEDVGVYYCSQNTHVPPTFGQGTKVEIERTVAAPSVFIFPPSDEQLKSGTASVVCLLNNFYPREAKVQWKVDNALQSGNSQESVTEQDSKDSTYSLSSTLTLSKADYEKHKVYACEVTHQGLSSPVTKSFNRGEC	–	–	–	88.8 control = 100	101 control = 100
GpH7-A5/GpH7-B3 variant P238_10E/GpL16-k0 (antibody, human IgG1, kappa, Heterodimerized antibody (He Ab): mutation in the GpH7-B3 chain only; also called He Ab) heavy 1: not shown heavy 2: not shown light: DIVMTQSPLSLPVTPGEPASISCQASESLVHSNRNTYLHWYLQKPGQSPQLLIYKVSNRFSGVPDRFSGSGSGTDFTLKISRVEAEDVGVYYCSQNTHVPPTFGQGTKVEIERTVAAPSVFIFPPSDEQLKSGTASVVCLLNNFYPREAKVQWKVDNALQSGNSQESVTEQDSKDSTYSLSSTLTLSKADYEKHKVYACEVTHQGLSSPVTKSFNRGEC	0.33 ratio	77.1 % of HeCon Ab (= 100)	232 % of HeCon Ab (= 100)	–	–

Second part, the binder after the results:

He_2aH/2b (IIaH/IIb) [1]	He/Con_2aH (relative binding activity) [2]	He/Con_2b (relative binding activity) [3]	He/Con_1a [4]	He/Con_2b [5]	Binder
0.67 ratio	97 % of HeCon Ab (= 100)	144 % of HeCon Ab (= 100)	–	–	GpH7-A5/GpH7-B3 variant S239_01G/GpL16-k0 (antibody, human IgG1, kappa, Heterodimerized antibody (He Ab): mutation in the GpH7-B3 chain only; also called He Ab) heavy 1: not shown heavy 2: not shown light: DIVMTQSPLSLPVTPGEPASISCQASESLVHSNRNTYLHWYLQKPGQSPQLLIYKVSNRFSGVPDRFSGSGSGTDFTLKISRVEAEDVGVYYCSQNTHVPPTFGQGTKVEIERTVAAPSVFIFPPSDEQLKSGTASVVCLLNNFYPREAKVQWKVDNALQSGNSQESVTEQDSKDSTYSLSSTLTLSKADYEKHKVYACEVTHQGLSSPVTKSFNRGEC
0.4 ratio	45.9 % of HeCon Ab (= 100)	115 % of HeCon Ab (= 100)	–	–	GpH7-A5/GpH7-B3 variant P238_16H/GpL16-k0 (antibody, human IgG1, kappa, Heterodimerized antibody (He Ab): mutation in the GpH7-B3 chain only; also called He Ab) heavy 1: not shown heavy 2: not shown light: DIVMTQSPLSLPVTPGEPASISCQASESLVHSNRNTYLHWYLQKPGQSPQLLIYKVSNRFSGVPDRFSGSGSGTDFTLKISRVEAEDVGVYYCSQNTHVPPTFGQGTKVEIERTVAAPSVFIFPPSDEQLKSGTASVVCLLNNFYPREAKVQWKVDNALQSGNSQESVTEQDSKDSTYSLSSTLTLSKADYEKHKVYACEVTHQGLSSPVTKSFNRGEC
0.72 ratio	50.9 % of HeCon Ab (= 100)	70.4 % of HeCon Ab (= 100)	–	–	GpH7-A5/GpH7-B3 variant P238_13S/GpL16-k0 (antibody, human IgG1, kappa, Heterodimerized antibody (He Ab): mutation in the GpH7-B3 chain only; also called He Ab) heavy 1: not shown heavy 2: not shown light: DIVMTQSPLSLPVTPGEPASISCQASESLVHSNRNTYLHWYLQKPGQSPQLLIYKVSNRFSGVPDRFSGSGSGTDFTLKISRVEAEDVGVYYCSQNTHVPPTFGQGTKVEIERTVAAPSVFIFPPSDEQLKSGTASVVCLLNNFYPREAKVQWKVDNALQSGNSQESVTEQDSKDSTYSLSSTLTLSKADYEKHKVYACEVTHQGLSSPVTKSFNRGEC
0.27 ratio	59.8 % of HeCon Ab (= 100)	218 % of HeCon Ab (= 100)	–	–	GpH7-A5/GpH7-B3 variant P238_15Y/GpL16-k0 (antibody, human IgG1, kappa, Heterodimerized antibody (He Ab): mutation in the GpH7-B3 chain only; also called He Ab) heavy 1: not shown heavy 2: not shown light: DIVMTQSPLSLPVTPGEPASISCQASESLVHSNRNTYLHWYLQKPGQSPQLLIYKVSNRFSGVPDRFSGSGSGTDFTLKISRVEAEDVGVYYCSQNTHVPPTFGQGTKVEIERTVAAPSVFIFPPSDEQLKSGTASVVCLLNNFYPREAKVQWKVDNALQSGNSQESVTEQDSKDSTYSLSSTLTLSKADYEKHKVYACEVTHQGLSSPVTKSFNRGEC
